IntAct's records for PubMed 25126958

B1: Cell division control protein 45 (Saccharomyces cerevisiae), Q08032 (parent)
chain: MYYGISQFSEAYNKILRNSSSHSSCQLVIFVSCLNIDALCATKMLSLLFKKQLVQSQIVPIFGYSELRRHYSQLDDNINSLLLVGFGGVIDLEAFLEIDPQEYVIDTDEKSGEQSFRRDIYVLDAHRPWNLDNIFGSQIIQCFDDGTVDDTLGEQKEAYYKLLELDEESGDDELSGDENDNNGGDDEATDADEVTDEDEEDEDETISNKRGNSSIGPNDLSKRKQRKKQIHEYEGVLEEYYSQGTTVVNSISAQIYSLLSAIGETNLSNLWLNILGTTSLDIAYAQVYNRLYPLLQDEVKRLTPSSRNSVKTPDTLTLNIQPDYYLFLLRHSSLYDSFYYSNYVNAKLSLWNENGKKRLHKMFARMGIPLSTAQETWLYMDHSIKRELGIIFDKNLDRYGLQDIIRDGFVRTLGYRGSISASEFVEALTALLEVGNSTDKDSVKINNDNNDDTDGEEEEDNSAQKLTNLRKRWVSNFWLSWDALDDRKVELLNRGIQLAQDLQRAIFNTGVAILEKKLIKHLRIYRLCVLQDGPDLDLYRNPLTLLRLGNWLIECCAESEDKQLLPMVLASIDENTDTYLVAGLTPRYPRGLDTIHTKKPILNNFSMAFQQITAETDAKVRIDNFESSIIEIRREDLSPFLEKLTLSGLL
partner: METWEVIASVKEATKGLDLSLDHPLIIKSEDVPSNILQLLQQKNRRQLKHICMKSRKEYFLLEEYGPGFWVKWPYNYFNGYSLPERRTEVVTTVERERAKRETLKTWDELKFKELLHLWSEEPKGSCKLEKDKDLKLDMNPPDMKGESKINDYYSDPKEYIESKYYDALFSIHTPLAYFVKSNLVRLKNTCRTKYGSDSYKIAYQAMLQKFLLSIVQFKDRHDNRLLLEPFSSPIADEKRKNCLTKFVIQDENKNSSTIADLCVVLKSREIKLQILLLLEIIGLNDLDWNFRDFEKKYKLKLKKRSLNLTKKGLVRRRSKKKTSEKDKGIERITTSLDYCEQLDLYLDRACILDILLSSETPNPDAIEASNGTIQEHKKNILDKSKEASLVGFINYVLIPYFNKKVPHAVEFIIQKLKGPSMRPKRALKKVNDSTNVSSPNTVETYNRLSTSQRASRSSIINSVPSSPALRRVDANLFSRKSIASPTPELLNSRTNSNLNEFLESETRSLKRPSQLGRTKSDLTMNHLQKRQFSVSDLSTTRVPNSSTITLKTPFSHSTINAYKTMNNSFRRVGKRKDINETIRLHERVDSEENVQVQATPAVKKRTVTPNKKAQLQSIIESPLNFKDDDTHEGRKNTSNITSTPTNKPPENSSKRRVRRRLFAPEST

Variants of: B1
Conditions: with sld3_yeast SLD3, P53135

Row | Variant | effect of a mutation on the interaction
1 | D91N;D124N;D149N;D150N | disrupting interaction strength
